Reference: patent US8314210B2, “Compositions and methods for the generation of MHC class II compounds by peptide exchange” (priority 2002, dated 2012)
Peptide text beside a SMILES is read from it. * marks the point of attachment. Dnp = O=[N+]([O-])c1ccc(*)c([N+](=O)[O-])c1; Ahx = NCCCCCC(=O)O

Experiments:
Format in all cases: binding
HLA-DR4 (DRA, DRB1*0401) = molecular target: T1, HLA-DR4 (DRA, DRB1*0401) (Homo sapiens, UniProt P01903+P01911, A100K/A169T/F76Y/I96L/K127E/L162R/M171V/N62H/P40V/Q125Y/R42H/S133A/S149N/S66Y/V115G/V209L/W38E); assay: biochemical; conditions: Table 2, DRB1*0401, read-out: (μM) [head prints unit only
T1 construct: were attached to the 3′ end of the DRα and DRβ ectodomains; CLIP peptide […]; made in house

DRB1*0401 = molecular target: T2, DRB1*0401 (Homo sapiens, UniProt P01903+P01911, A100K/A169T/F76Y/I96L/K127E/L162R/M171V/N62H/P40V/Q125Y/R42H/S133A/S149N/S66Y/V115G/V209L/W38E); conditions: 3.3 μM *DR/CLIP, 50 μM DNP-labeled peptide, pH 5.2, overnight 30° C.
T2 construct: were attached to the 3′ end of the DRα and DRβ ectodomains; CLIP peptide […]; made in house

DR4 = molecular target: T3, DR4 (Homo sapiens, UniProt P01903+P01911, A100K/A169T/F76Y/I96L/K127E/L162R/M171V/N62H/P40V/Q125Y/R42H/S133A/S149N/S66Y/V115G/V209L/W38E); assay: Kinetics of CLIP dissociation and peptide association; conditions: DR4, pH 5.2
T3 construct: CLIP peptide […]; made in house

DR4 (DRA, DRB1*0401) = molecular target: T4, DR4 (DRA, DRB1*0401) (Homo sapiens, UniProt P01903+P01911, A100K/A169T/F76Y/I96L/K127E/L162R/M171V/N62H/P40V/Q125Y/R42H/S133A/S149N/S66Y/V115G/V209L/W38E); assay: Competition assay of HCV peptides, biotinylated HA (306-318) on thrombin-cleaved DR4/CLIP; conditions: competitor 30 nM to 10 μM vs 30 nM labeled HA peptide
T4 construct: were attached to the 3′ end of the DRα and DRβ ectodomains; CLIP peptide […]; made in house

CC[C@H](C)[C@H](NC(=O)[C@H](CC(N)=O)NC(=O)[C@H](CCCCN)NC(=O)[C@H](Cc1ccccc1)NC(=O)[C@H](Cc1ccccc1)NC(=O)[C@H](Cc1c[nH]cn1)NC(=O)[C@@H](NC(=O)[C@@H](NC(=O)CCCCCNc1ccc([N+](=O)[O-])cc1[N+](=O)[O-])C(C)C)C(C)C)C(=O)N[C@H](C(=O)N[C@H](C(=O)N1CCC[C@H]1C(=O)N[C@@H](CCCNC(=N)N)C(=O)N[C@H](C(=O)N1CCC[C@H]1C(=O)N1CCC[C@H]1C(=O)O)[C@@H](C)O)[C@@H](C)O)C(C)C [MBP(88-102)] ({Dnp-Ahx}-VVHFFKNIVTPRTPP-OH) showed an IC50 (HLA-DR4 (DRA, DRB1*0401)) of 0.3 µM.

CC[C@H](C)[C@H](NC(=O)[C@H](CCC(N)=O)NC(=O)[C@H](CCC(=O)O)NC(=O)CCCCCNc1ccc([N+](=O)[O-])cc1[N+](=O)[O-])C(=O)NCC(=O)N[C@@H](Cc1c[nH]c2ccccc12)C(=O)N[C@@H](CCSC)C(=O)N[C@H](C(=O)N[C@@H](CC(N)=O)C(=O)N[C@@H](CC(N)=O)C(=O)N1CCC[C@H]1C(=O)N1CCC[C@H]1C(=O)N[C@H](C(=O)N1CCC[C@H]1C(=O)N[C@H](C(=O)NCC(=O)O)C(C)C)[C@@H](C)CC)[C@@H](C)O [p24 (113-127)] ({Dnp-Ahx}-EQIGWMTNNPPIPVG-OH; C-terminus assumed) was tested, and the “Loading Efficiency (%)” value (DRB1*0401) was 79%.

CC[C@H](C)[C@H](NC(=O)[C@H](CO)NC(=O)[C@@H](NC(=O)[C@@H]1CCCN1C(=O)[C@H](CO)NC(=O)[C@H](Cc1ccc(O)cc1)NC(=O)[C@H](CCSC)NC(=O)[C@H](CCCNC(=N)N)NC(=O)[C@@H](NC(=O)[C@@H](NC(=O)[C@H](CCCCN)NC(=O)[C@H](CC(N)=O)NC(=O)[C@H](CC(C)C)NC(=O)CCCCCNc1ccc([N+](=O)[O-])cc1[N+](=O)[O-])[C@@H](C)CC)C(C)C)C(C)C)C(=O)O [p24 (138-150)/Val] ({Dnp-Ahx}-LNKIVRMYSPVSI-OH; C-terminus assumed) was tested, and the “Loading Efficiency (%)” value (DRB1*0401) was 90%.

With “CGGGPVSKMRMATPLLMQA [Alexa-488 labeled CLIP peptide]” the “time by which almost all of the bound CLIP peptide had dissociated” value (DR4) was ≤ 30 min.

In the case of “aa 1241-1260: HCV peptide aa 1241-1260 tested for DR4 binding, printed with SEQ ID NO:19 (GYKVLVLNPSVAATL; listed as Homo sapiens)”, the “binding to DR4” value (DR4 (DRA, DRB1*0401)) was “bound to DR4”.

“aa 1581-1600: HCV peptide aa 1581-1600 tested for DR4 binding, printed with SEQ ID NO:20” was tested, and the “binding to DR4” value (DR4 (DRA, DRB1*0401)) was “bound to DR4”.

In the case of “aa 1771-1790: HCV peptide aa 1771-1790 tested for DR4 binding, printed with SEQ ID NO:21 (SGIQYLAGLSTLPGNPAIASL; listed as Homo sapiens)”, the “binding to DR4” value (DR4 (DRA, DRB1*0401)) was “bound to DR4”.
